B1: T25-QseE [E. coli K-12] / T18-TM_(oppB)-QseG [E. coli K-12] (parent complex)
chain 1: MKRWPVFPRSLRQLVMLAFLLILLPLLVLAWQAWQSLNALSDQAALVNRTTLIDARRSEAMTNAALEMERSYRQYCVLDDPTLAKVYQSQRKRYSEMLDAHAGVLPDDKLYQALRQDLHNLAQLQCNNSGPDAAAAARLEAFASANTEMVQATRTVVFSRGQQLQREIAERGQYFGWQSLVLFLVSLVMVLLFTRMIIGPVKNIERMINRLGEGRSLGNSVSFSGPSELRSVGQRILWLSERLSWLESQRHQFLRHLSHELKTPLASMREGTELLADQVVGPLTPEQKEVVSILDSSSRNLQKLIEQLLDYNRKQADSAVELENVELAPLVETVVSAHSLPARAKMMHTDVDLKATACLAEPMLLMSVLDNLYSNAVHYGAESGNICLRSSLHGARVYIDVINTGTPIPQEERAMIFEPFFQGSHQRKGAVKGSGLGLSIARDCIRRMQGELYLVDESGQDVCFRIELPSSKNTK
chain 2: CVQNHNKPAIDTPAEEKIPVYQLADYLSTECSDIWALQGKSTETNPLYWLRAMDCADRLMPAQSRQQARQYDDGSWQNTFKQGILLADAKITPYERRQLVARIEALSTEIPAQVRPLYQLWRDGQALQLQLAEERQRYSKLQQSSDSELDTLRQQHHVLQQQLELTTRKLENLTDIERQLSTRKPAGNFSPDTPHESEKPAPSTHEVTPDEP

Variants of B1 are the subject of one experiment. In words: BACTH assay (bacterial two-hybrid, β-galactosidase read-out); reporter strain BTH101; plasmids pYG242/pYG199_1.6; parent: 1.6e+03; read off a plot.
On to chain 1 S58N, for which the response was around 250 Miller units.

The variants in a further experiment derive from B1. The experiment is described as follows: BACTH assay (bacterial two-hybrid, β-galactosidase read-out); reporter strain BTH101; plasmids pYG242/pYG199_TM1; parent: 1.6e+03; read off a plot.
Regarding chain 1 F19L, chain 1 L21H, chain 1 I22R, chain 1 L23P, chain 1 L24P, the response is around 70 Miller units.

These data come from PMC6075780, “Interaction of lipoprotein QseG with sensor kinase QseE in the periplasm controls the phosphorylation state of the two-component system QseE/QseF in Escherichia coli” (PLoS Genetics, 2018).
